This assay has as its target E18A DJ-1-FLAG (in HeLa cells) (human) (UniProt Q99497). Kind of assay: cross-linking; HeLa cells transfected with FLAG-tagged DJ-1, without or with 20 uM CCCP for 7 hrs; cell extracts treated with 100 uM DSS for 10 min; Western blot with anti-FLAG. Background: Immunoblotting shows a protein as a band on a membrane.

Regarding “E18A DJ-1-FLAG (in HeLa cells) (from UniProt Q99497 1-189) (natural protein)”, the ratio of dimer (cells treated with CCCP) is 68.7 and the ratio of dimer (cells without CCCP) amounted to 57.2.

These data come from article PMC3542337.
